Measurements taken from US10406218B2 (priority 2014, dated 2019).

B1: Rv0288: MTB antigen currently included in TB vaccines in clinical development (protein, UniProt P9WNK3 1-96, looked up)
ESAT-6-like protein EsxH: MSQIMYNYPAMLGHAGDMAGYAGTLQSLGAEIAVEQAALQSAWQGDTGITYQAWQAQWNQAMEDLVRAYHAMSSTHEANTMAMMARDTAEAAKWGG
B2: Rv1886c: MTB antigen currently included in TB vaccines in clinical development (protein, UniProt P9WQP1 41-325, looked up)
Diacylglycerol …: FSRPGLPVEYLQVPSPSMGRDIKVQFQSGGNNSPAVYLLDGLRAQDDYNGWDINTPAFEWYYQSGLSIVMPVGGQSSFYSDWYSPACGKAGCQTYKWETFLTSELPQWLSANRAVKPTGSAAIGLSMAGSSAMILAAYHPQQFIYAGSLSALLDPSQGMGPSLIGLAMGDAGGYKAADMWGPSSDPAWERNDPTQQIPKLVANNTRLWVYCGNGTPNELGGANIPAEFLENFVRSSNLKFQDAYNAAGGHNAVFNFPPNGTHSWEYWGAQLNAMKGDLQSSLGAG
B3: Rv1196: MTB antigen currently included in TB vaccines in clinical development (protein, UniProt L7N675 1-391, looked up)
PPE family protein PPE18: MVDFGALPPEINSARMYAGPGSASLVAAAQMWDSVASDLFSAASAFQSVVWGLTVGSWIGSSAGLMVAAASPYVAWMSVTAGQAELTAAQVRVAAAAYETAYGLTVPPPVIAENRAELMILIATNLLGQNTPAIAVNEAEYGEMWAQDAAAMFGYAAATATATATLLPFEEAPEMTSAGGLLEQAAAVEEASDTAAANQLMNNVPQALQQLAQPTQGTTPSSKLGGLWKTVSPHRSPISNMVSMANNHMSMTNSGVSMTNTLSSMLKGFAPAAAAQAVQTAAQNGVRAMSSLGSSLGSSGLGGGVAANLGRAASVGSLSVPQAWAAANQAVTPAARALPLTSLTSAAERGPGQMLGGLPVGQMGARAGGGLSGVLRVPPRPYVMPHSPAAG

tested on: T cells of LTBI and HC donors; assay: antigen reactivity in LTBI vs HC donors (LTBI-specific or crossreactive); format: cell-based, human; conditions: response frequency and magnitude in LTBI vs HC donors, FIG. 10
Description: The data herein implies that preexisting immunity and occasional boosting might be provided by exposure to NTMs, in a low MTB-complex exposure population such as the one from the general San Diego area. This might be viewed as desirable, or alternatively contributing an undesired confounding factor in evaluation of vaccination strategies. Regardless, whether or not preexisting, non-TB-complex related reactivity is present in the general population is an important issue has implication for the development of vaccination strategies. To further investigate this issue, epitope reactivity data (Lindestamm-Arlehamn et al, 2012) was mapped back to the specific antigens from which the epitopes were derived. Antigens recognized by 2 or more donors were further categorized as LTBI-specific or crossreactive according to the following criteria; antigens were categorized as LTBI-specific if there was a lack of reactivity in HC individuals, or if the ratio between response frequency and total SFC for LTBI/HC were >4. All other antigens were categorized as crossreactive.

Molecule | antigen reactivity category (LTBI-specific or crossreactive)
B1 | widely cross-reactive
B2 | widely cross-reactive
B3 | exclusively specific
